Source: US11708423B2, “Chimeric engulfment receptor molecules and methods of use” (CERO THERAPEUTICS, INC., priority 2017, dated 2023)

What was measured:
[1] = system: human primary B cells; test: Proliferation of CER+ B cells co-cultured with paclitaxel treated Jurkat cells (CELLTRACE Violet dilution); format: cell-based; conditions: 5 days co-culture with paclitaxel (30 μM) treated Jurkat cells, no exogenous cytokines
Procedure: The proliferation capacity of CER19+ and CER21+ human primary B cells was evaluated by co-culture with paclitaxel (30 μM) treated Jurkat lymphoma cells. CER-transduced B cells were labeled with CELLTRACE Violet and then co-cultured with paclitaxel treated Jurkat cells a target cell to effector cell ratio of 5:1 at 37° C. in the absence of exogenous cytokines for 5 days. Proliferation of CER19+ or CER21+B cells was assessed by flow cytometry by measuring dilution of CELLTRACE Violet (FIG. 23). Both CER19+ and CER21+ B cells increased approximately 10-fold after 5 days of co-culture in the absence of exogenous cytokines.

[2] = system: pHrodo-red labeled, dexamethasone treated thymocytes; test: Luminal degradation of engulfed thymocytes in CER-transduced Ba/F3 cells (time-lapse imaging); format: cell-based; conditions: FACS purified after overnight co-culture
Procedure: Luminal degradation in CER-transduced cells was also evaluated following engulfment. Ba/F3 cells transduced with CER21 or CER116 were co-cultured with pHrodo-red labeled, dexamethasone treated thymocytes overnight and subsequently purified by FACS. Target cell destruction was visualized by time-lapse imaging and quantified over time (FIG. 85F). […] CER116-harboring Ba/F3 cells (top) catabolize target cells, allowing cells to return to homeostasis and resume immune responsiveness. The addition of a TRAF6 signaling domain to the CER construct promotes rapid destruction of engulfed material.

[3] = system: dexamethasone pre-treated thymocytes; test: Phagocytosis of thymocytes by CER Ba/F3 cells in presence or absence of Racl inhibitor; format: cell-based; conditions: Ba/F3 cells, 6 hour co-culture
[4] = system: H1975 NSCLC cells; test: Phagocytosis of Osimeritinib-treated H1975 cells by CER122 T cells; format: cell-based; conditions: 500 nM osimeritinib, 12 hours, CD4+ T cells
Procedure: H1975 NSCLC cells were treated with 500 nM Osimeritinib and then labeled with pH-rodo red, a pH sensing dye, to indicate localization to low-pH retaining endosomes. CD4+ T cells were transduced with a lentiviral vector comprising a CER122 nucleic acid and tEGFR nucleic acid (transduction marker). CER122 has a polypeptide sequence as set forth in SEQ ID NO:149 and comprises a Tim4 binding domain, Tim4 transmembrane domain, and an engulfment signaling domain comprising a primary engulfment signaling domain comprising a TLR2 signaling domain and a secondary engulfment signaling domain comprising a DAP12 signaling domain. CER122-transduced T cells labeled with CELLTRACE Violet were co-cultured with Osimeritinib-treated H1975 NSCLC cells. Fluorescent microscopy images (40X) were obtained 12 hours after co-culture of H1975 cells and CER-expressing T cells (FIG. 47, top left panel). […] Phagocytic events can be visualized as pHrodo red targets within CELLTRACE Violet labeled T cells. An enlargement of phagocytosis of pHrodo red labeled H1975 cells by CELLTRACE Violet labeled CER122-modified T cells is shown in the bottom panel of FIG. 47, with white arrows indicating phagocytic events.

[5] = system: H1975 EGFR+/Luciferase+ cells; test: Adoptive transfer of CER T cells with EGFR inhibitor in H1975 xenograft; format: in vivo, immunodeficient (NSG) mice; conditions: Osimeritinib 1 mg/kg intraperitoneally + 10e6 CER-transduced human T cells, NSG mice
Procedure: The combination of CER therapy and EGFR inhibitor therapy was also evaluated in vivo. […] H1975 EGFR+/Luciferase^+ cells were engrafted into immunodeficient (NSG) mice 14 days prior to initiation of study and evaluated for engraftment by bioluminescent emission and tumor volume seven days later. The day prior to CER adoptive transfer (day-1), animals with established tumors were randomized into groups and treated with Osimeritinib 1 mg/kg (intraperitoneally) and then infused by tail vein with 10e6 CER-transduced human T cells. Animals received 10 μg of systemic IL-2 every 24 hours×3 days following cell infusion and then monitored for tumor progression and cell expansion and persistence thereafter. Tumor volume measurements were obtained post-adoptive transfer in untreated, Osimeritinib treated (1 mg/kg)+mock-transduced T cells (vector only), and Osimeritinib (1 mg/kg)+CER122-transduced T cells (n=5/group) (FIG. 79).

[6] = system: HCC159 lung adenocarcinoma cells; test: Interferon Gamma secretion, HCC159 co-culture; format: cell-based; conditions: Osimeritinib 0, 1, 5 nM; 18 hours
Procedure: HCC159 lung adenocarcinoma cells were co-cultured with CER123- or CER126-expressing CD4+ T cells with increasing concentrations of Osimeritnib (0, 1 nM, 5 nM). After 18 hours of co-culture, bulk supernatants were evaluated using a LDH-based cytotoxicity assay. T cells assays were performed using purified, EGFR^+ (transduction marker), CER modified T cells 7 days after activation using CD3 & CD28 microbeads at effector:target cell ratios of 2:1 or 5:1. Control “Mock” T cells were transduced with vector alone. […] Bulk supernatants were also analyzed after 18 hours of co-culture for Interferon Gamma (IFNγ) secretion (FIG. 50). Control “Mock” T cells were transduced with vector alone.

[7] = system: SCC152 cells; test: LDH cytotoxicity assay, CD4 T cell/CER104 + CD8 T cell/HPV16 E7 TCR co-culture; format: cell-based, human; conditions: CD4/CER + CD8/HPV16 E7 TCR 1:1, 4 hours
Source text: LDH is a cytosolic enzyme that is released by a cell into cell culture media when the plasma membrane is damaged. Thus, LDH's presence in culture medium is a marker for cell death. LDH assays are capable of detecting low level damage to cell membrane which cannot be detected using other methods. LDH may be detected using colorimetric or fluorometric methods.

B1: CER21: Tim4 binding and transmembrane domains, TLR8 signaling domain; SEQ ID NO:88 (protein)
chain: MSKGLLLLWLVTELWWLYLTPAASEDTIIGFLGQPVTLPCHYLSWSQSRNSMCWGKGSCPNSKCNAELLRTDGTRIISRKSTKYTLLGKVQFGEVSLTISNTNRGDSGVYCCRIEVPGWFNDVKKNVRLELRRATTTKKPTTTTRPTTTPYVTTTTPELLPTTVMTTSVLPTTTPPQTLATTAFSTAVTTCPSTTPGSFSQETTKGSAFTTESETLPASNHSQRSMMTISTDIAVLRPTGSNPGILPSTSQLTTQKTTLTTSESLQKTTKSHQINSRQTILIIACCVGFVLMVLLFLAFLHHLFYWDVWFIYNVCLAKVKGYRSLSTSQTFYDAYISYDTKDASVTDWVINELRYHLEESRDKNVLLCLEERDWDPGLAIIDNLMQSINQSKKTVFVLTKKYAKSWNFKTAFYLALQRLMDENMDVIIFILLEPVLQHSQYLRLRQRICKSSILQWPDNPKAEGLFWQTLRNVVLTENDSRYNNMYVDSIKQY
modifications: CER21 chimeric engulfment receptor
- increase of CER+ B cells [1]: approximately 10 fold
- luminal content degradation over time [2]: broken down over-time
- pHrodo+ signal (phagocytosis of thymocytes), FACS [3]: considerable pHrodo+ signal indicating phagocytosis of target thymocytes

B2: CER122: Tim4 binding and transmembrane domains, TLR2 primary and DAP12 secondary signaling domains; SEQ ID NO:149 (protein)
chain: MSKGLLLLWLVTELWWLYLTPAASEDTIIGFLGQPVTLPCHYLSWSQSRNSMCWGKGSCPNSKCNAELLRTDGTRIISRKSTKYTLLGKVQFGEVSLTISNTNRGDSGVYCCRIEVPGWFNDVKKNVRLELRRATTTKKPTTTTRPTTTPYVTTTTPELLPTTVMTTSVLPTTTPPQTLATTAFSTAVTTCPSTTPGSFSQETTKGSAFTTESETLPASNHSQRSMMTISTDIAVLRPTGSNPGILPSTSQLTTQKTTLTTSESLQKTTKSHQINSRQTILIIACCVGFVLMVLLFLAFLHRFHGLWYMKMMWAWLQAKRKPRKAPSRNICYDAFVSYSERDAYWVENLMVQELENFNPPFKLCLHKRDFIPGKWIIDNIIDSIEKSHKTVFVLSENFVKSEWCKYELDFSHFRLFDENNDAAILILLEPIEKKAIPQRFCKLRKIMNTKTYLEWPMDEAQREGFWVNLRAAIKSYFLGRLVPRGRGAAEAATRKQRITETESPYQELQGQRSDVYSDLNTQRPYYK
modifications: CER122 protein
- phagocytosis of H1975 cells [4]: phagocytic elimination of EGFR-mutated NSCLC cells
- anti-tumor response (tumor volume) [5]: enhanced anti-tumor responses in EGFR+NSCLC model in vivo

B3: CER123: Tim4 binding and transmembrane domains, TLR2 primary and TRAF6 secondary signaling domains; SEQ ID NO:150 (protein)
chain: MSKGLLLLWLVTELWWLYLTPAASEDTIIGFLGQPVTLPCHYLSWSQSRNSMCWGKGSCPNSKCNAELLRTDGTRIISRKSTKYTLLGKVQFGEVSLTISNTNRGDSGVYCCRIEVPGWFNDVKKNVRLELRRATTTKKPTTTTRPTTTPYVTTTTPELLPTTVMTTSVLPTTTPPQTLATTAFSTAVTTCPSTTPGSFSQETTKGSAFTTESETLPASNHSQRSMMTISTDIAVLRPTGSNPGILPSTSQLTTQKTTLTTSESLQKTTKSHQINSRQTILIIACCVGFVLMVLLFLAFLHRFHGLWYMKMMWAWLQAKRKPRKAPSRNICYDAFVSYSERDAYWVENLMVQELENFNPPFKLCLHKRDFIPGKWIIDNIIDSIEKSHKTVFVLSENFVKSEWCKYELDFSHFRLFDENNDAAILILLEPIEKKAIPQRFCKLRKIMNTKTYLEWPMDEAQREGFWVNLRAAIKSMSLLNCENSCGSSQSESDCCVAMASSCSAVTKDDSVGGTASTGNLSSSFMEEIQGYDVEFDPPLESKYECPICLMALREAVQTPCGHRFCKACIIKSIRDAGHKCPVDNEILLENQLFPDNFAKREILSLMVKCPNEGCLHKMELRHLEDHQAHCEFALMDCPQCQRPFQKFHINIHILKDCPRRQVSCDNCAASMAFEDKEIHDQNCPLANVICEYCNTILIREQMPNHYDLDCPTAPIPCTFSTFGCHEKMQRNHLARHLQENTQSHMRMLA
modifications: CER123 protein
- Interferon Gamma (IFNγ) secretion [6]: inducible cytokine secretion

B4: CER104: Tim4 binding and transmembrane domains, TLR8 primary and DAP12 secondary signaling domains; SEQ ID NO:133 (protein)
chain: MSKGLLLLWLVTELWWLYLTPAASEDTIIGFLGQPVTLPCHYLSWSQSRNSMCWGKGSCPNSKCNAELLRTDGTRIISRKSTKYTLLGKVQFGEVSLTISNTNRGDSGVYCCRIEVPGWFNDVKKNVRLELRRATTTKKPTTTTRPTTTPYVTTTTPELLPTTVMTTSVLPTTTPPQTLATTAFSTAVTTCPSTTPGSFSQETTKGSAFTTESETLPASNHSQRSMMTISTDIAVLRPTGSNPGILPSTSQLTTQKTTLTTSESLQKTTKSHQINSRQTILIIACCVGFVLMVLLFLAFLHHLFYWDVWFIYNVCLAKVKGYRSLSTSQTFYDAYISYDTKDASVTDWVINELRYHLEESRDKNVLLCLEERDWDPGLAIIDNLMQSINQSKKTVFVLTKKYAKSWNFKTAFYLALQRLMDENMDVIIFILLEPVLQHSQYLRLRQRICKSSILQWPDNPKAEGLFWQTLRNVVLTENDSRYNNMYVDSIKQYYFLGRLVPRGRGAAEAATRKQRITETESPYQELQGQRSDVYSDLNTQRPYYK
modifications: CER104 protein
- cytolytic activity (LDH cytotoxicity assay) [7]: enhanced cytolytic activity
